The results in this text go back to paper PMC6368585, “Chaperone activation and client binding of a 2-cysteine peroxiredoxin” (Nature Communications, 2019).

Bounds are passed on as bounds.

The target of data set [1] is luciferase (thermally unfolded model client) [luciferase: P08659].
The target in data set [2] is T1, luciferase (thermally unfolded model client) (UniProt P08659 1-550 = luciferase).
T1 construct: luciferase, 63 kDa; cross-links were mapped onto the whole-chain model pdb 1LCI; source: bought: Promega
T1 sequence (P08659 whole entry): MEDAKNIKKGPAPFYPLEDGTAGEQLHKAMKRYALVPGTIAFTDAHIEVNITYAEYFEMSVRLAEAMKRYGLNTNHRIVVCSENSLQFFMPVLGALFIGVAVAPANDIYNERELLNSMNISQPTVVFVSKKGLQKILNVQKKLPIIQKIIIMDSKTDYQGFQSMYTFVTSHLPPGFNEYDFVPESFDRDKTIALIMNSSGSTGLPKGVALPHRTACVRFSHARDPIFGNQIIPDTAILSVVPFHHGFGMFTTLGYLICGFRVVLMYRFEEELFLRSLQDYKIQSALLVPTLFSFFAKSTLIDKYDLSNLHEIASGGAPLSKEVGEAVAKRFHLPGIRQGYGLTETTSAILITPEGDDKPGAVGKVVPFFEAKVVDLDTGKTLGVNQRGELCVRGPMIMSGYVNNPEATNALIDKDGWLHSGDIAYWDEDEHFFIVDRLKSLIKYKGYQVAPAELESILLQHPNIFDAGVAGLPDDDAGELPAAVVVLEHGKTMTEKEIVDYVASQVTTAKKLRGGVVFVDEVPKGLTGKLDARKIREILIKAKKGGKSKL
Nature of the data set: AUC; analytical ultracentrifugation of mTXNPxred with luciferase (Supplemental Methods). As to conditions: both partners purified.

Data set [3] concerns the molecule itself. Nature of the data set: cross-linking; quantitative cross-linking (qCL) with isotopically light or heavy DSS (0.1 mM), each condition (Red or Ox, 30 °C or 42 °C) cross-linked apart and mixed 1:1; log2(H/L) of inter-protein K122/K123 peptide pairs across the dimer-dimer (A-type) interface; decamer to dimers.

luciferase (thermally unfolded model client) [luciferase: P08659], sequence (P08659 whole entry): as above

Regarding “∆5mTXNPx, N-terminal truncation mutant lacking the first 5 residues of the mature protein (reduced) (from UniProt A0A6L0XFC6 33-226) (enzyme)”, the chaperone activity: suppression of the thermal aggregation of luciferase (0.1 µM, 42 °C, light scattering at 360 nm), different ratios up to a 40-fold molar excess, compared to wt-mTXNPx (% less active than wt-mTXNPx) in data set [1] was more than 70.

B1: reduced, decameric Leishmania infantum mitochondrial 2-Cys peroxiredoxin mTXNPx (mTXNPxred) (enzyme)
chain: GSHMNLDYQMYRTATVREAAPQFSGQAVVNGAIKDINMNDYKGKYIVLFFYPMDFTFVCPTEIIAFSDRHADFEKLNTQVVAVSCDSVYSHLAWVNTPRKKGGLGEMHIPVLADKSMEIARDYGVLIEESGIALRGLFIIDKKGILRHSTINDLPVGRNVDEALRVLEAFQYADENGDAIPCGWKPGQPTLDTTKAGEFFEKNM
notes: Reduced form, decamer of five dimers; also called Prx1m; wt mTXNPx; source: E. coli BL21(DE3), purified; His tag removed with thrombin; reduced with 5 mM DTT; not shown: His6, N-terminal, cleaved; copies: 10
On to B1, for which, in data set [2], the “stoichiometry N” value was 1 luciferase per mTXNPx decamer. In data set [3], the “log2(H/L) of inter-protein cross-link Pep1-Pep1, heavy Red (42 °C) over light Red (30 °C)” value is -2.32 log2 ratio; the “log2(H/L) of inter-protein cross-link Pep1-Pep2, heavy Red (30 °C) over light Red (42 °C)” value worked out at 1.4 log2 ratio; the “log2(H/L) of inter-protein cross-link Pep1-Pep2, heavy Red (42 °C) over light Red (30 °C)” value is -1.55 log2 ratio.
